Test results taken from IntAct's records for PubMed 36931259.

B1: 14-3-3 protein sigma (Homo sapiens), P31947 (parent)
chain: MERASLIQKAKLAEQAERYEDMAAFMKGAVEKGEELSCEERNLLSVAYKNVVGGQRAAWRVLSSIEQKSNEEGSEEKGPEVREYREKVETELQGVCDTVLGLLDSHLIKEAGDAESRVFYLKMKGDYYRYLAEVATGDDKKRIIDSARSAYQEAMDISKKEMPPTNPIRLGLALNFSVFHYEIANSPEEAISLAKTTFDEAMADLHTLSEDSYKDSTLIMQLLRDNLTLWTADNAGEEGGEAPQEPQS

Variants of: B1
Settings: with erbb4_human ERBB4, Q15303
Sequence of erbb4_human ERBB4, Q15303 (Q15303 whole entry): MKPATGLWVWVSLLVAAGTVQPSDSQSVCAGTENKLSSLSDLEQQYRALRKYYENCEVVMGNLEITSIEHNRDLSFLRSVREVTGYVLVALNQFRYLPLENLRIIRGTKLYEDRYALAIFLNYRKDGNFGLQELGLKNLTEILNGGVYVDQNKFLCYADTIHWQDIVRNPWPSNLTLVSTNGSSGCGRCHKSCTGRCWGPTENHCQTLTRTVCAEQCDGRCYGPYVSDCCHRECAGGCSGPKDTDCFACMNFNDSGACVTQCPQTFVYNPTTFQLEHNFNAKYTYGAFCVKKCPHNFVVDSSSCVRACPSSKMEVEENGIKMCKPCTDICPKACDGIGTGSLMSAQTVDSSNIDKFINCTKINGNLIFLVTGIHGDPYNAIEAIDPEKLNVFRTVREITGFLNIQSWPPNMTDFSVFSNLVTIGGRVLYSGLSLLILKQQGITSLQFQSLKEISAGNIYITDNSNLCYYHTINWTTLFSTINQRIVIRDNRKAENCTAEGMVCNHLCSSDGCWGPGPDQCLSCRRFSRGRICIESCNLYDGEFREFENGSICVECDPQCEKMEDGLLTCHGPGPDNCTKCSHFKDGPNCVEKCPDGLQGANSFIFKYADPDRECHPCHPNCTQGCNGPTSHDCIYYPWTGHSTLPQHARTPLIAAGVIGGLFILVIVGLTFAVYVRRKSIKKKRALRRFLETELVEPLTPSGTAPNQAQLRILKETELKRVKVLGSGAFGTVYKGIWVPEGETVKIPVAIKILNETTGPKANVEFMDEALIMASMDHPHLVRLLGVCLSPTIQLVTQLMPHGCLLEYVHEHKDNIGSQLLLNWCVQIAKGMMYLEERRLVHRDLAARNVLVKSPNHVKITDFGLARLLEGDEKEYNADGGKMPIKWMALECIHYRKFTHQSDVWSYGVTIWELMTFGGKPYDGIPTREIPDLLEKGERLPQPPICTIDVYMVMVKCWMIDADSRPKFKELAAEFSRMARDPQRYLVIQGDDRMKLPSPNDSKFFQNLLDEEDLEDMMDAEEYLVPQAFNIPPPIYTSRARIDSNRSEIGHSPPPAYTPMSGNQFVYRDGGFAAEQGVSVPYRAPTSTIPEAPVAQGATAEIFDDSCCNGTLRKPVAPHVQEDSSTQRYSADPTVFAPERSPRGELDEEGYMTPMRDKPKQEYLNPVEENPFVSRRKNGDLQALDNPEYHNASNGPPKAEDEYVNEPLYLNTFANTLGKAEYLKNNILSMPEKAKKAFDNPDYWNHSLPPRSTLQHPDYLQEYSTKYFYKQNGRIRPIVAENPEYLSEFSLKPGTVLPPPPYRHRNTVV

Row | effect of a mutation on the interaction | Variant
1 | decreasing interaction strength | MERASLIQKAKLAEQAERYEDMAAFMKGAVEKGEELSCEERNLLSVAYENVVGGQEAAWRVLSSIEQKSNEEGSEEKGPEVREYREKVETELQGVCDTVLGLLDSHLIKEAGDAESRVFYLKMKGDYYRYLAEVATGDDKKRIIDSARSAYQEAMDISKKEMPPTNPIRLGLALNFSDFHYEIANSPEEAISLAKTTFDEAMADLHTLSEDSYKDSTLIMQLLRDNLTLWTADNAGEEGGEAPQEPQS [K49E;R56E;V178D]

Variants of: B1
Settings: with bub1b_human BUB1B

Row | effect of a mutation on the interaction | Variant
2 | decreasing interaction strength | MERASLIQKAKLAEQAERYEDMAAFMKGAVEKGEELSCEERNLLSVAYENVVGGQEAAWRVLSSIEQKSNEEGSEEKGPEVREYREKVETELQGVCDTVLGLLDSHLIKEAGDAESRVFYLKMKGDYYRYLAEVATGDDKKRIIDSARSAYQEAMDISKKEMPPTNPIRLGLALNFSDFHYEIANSPEEAISLAKTTFDEAMADLHTLSEDSYKDSTLIMQLLRDNLTLWTADNAGEEGGEAPQEPQS [K49E;R56E;V178D]

Variants of: B1
Settings: with pak5_human PAK5, Q9P286

Row | effect of a mutation on the interaction | Variant
3 | decreasing interaction strength | MERASLIQKAKLAEQAERYEDMAAFMKGAVEKGEELSCEERNLLSVAYENVVGGQEAAWRVLSSIEQKSNEEGSEEKGPEVREYREKVETELQGVCDTVLGLLDSHLIKEAGDAESRVFYLKMKGDYYRYLAEVATGDDKKRIIDSARSAYQEAMDISKKEMPPTNPIRLGLALNFSDFHYEIANSPEEAISLAKTTFDEAMADLHTLSEDSYKDSTLIMQLLRDNLTLWTADNAGEEGGEAPQEPQS [K49E;R56E;V178D]

Variants of: B1
Settings: with cdk16_human CDK16, Q00536

Row | effect of a mutation on the interaction | Variant
4 | decreasing interaction strength | MERASLIQKAKLAEQAERYEDMAAFMKGAVEKGEELSCEERNLLSVAYENVVGGQEAAWRVLSSIEQKSNEEGSEEKGPEVREYREKVETELQGVCDTVLGLLDSHLIKEAGDAESRVFYLKMKGDYYRYLAEVATGDDKKRIIDSARSAYQEAMDISKKEMPPTNPIRLGLALNFSDFHYEIANSPEEAISLAKTTFDEAMADLHTLSEDSYKDSTLIMQLLRDNLTLWTADNAGEEGGEAPQEPQS [K49E;R56E;V178D]

Variants of: B1
Settings: with sik1_human SIK1, P57059

Row | effect of a mutation on the interaction | Variant
5 | decreasing interaction strength | MERASLIQKAKLAEQAERYEDMAAFMKGAVEKGEELSCEERNLLSVAYENVVGGQEAAWRVLSSIEQKSNEEGSEEKGPEVREYREKVETELQGVCDTVLGLLDSHLIKEAGDAESRVFYLKMKGDYYRYLAEVATGDDKKRIIDSARSAYQEAMDISKKEMPPTNPIRLGLALNFSDFHYEIANSPEEAISLAKTTFDEAMADLHTLSEDSYKDSTLIMQLLRDNLTLWTADNAGEEGGEAPQEPQS [K49E;R56E;V178D]

Variants of: B1
Settings: with mark3_human MARK3, P27448
Sequence of mark3_human MARK3, P27448 (P27448 whole entry, looked up): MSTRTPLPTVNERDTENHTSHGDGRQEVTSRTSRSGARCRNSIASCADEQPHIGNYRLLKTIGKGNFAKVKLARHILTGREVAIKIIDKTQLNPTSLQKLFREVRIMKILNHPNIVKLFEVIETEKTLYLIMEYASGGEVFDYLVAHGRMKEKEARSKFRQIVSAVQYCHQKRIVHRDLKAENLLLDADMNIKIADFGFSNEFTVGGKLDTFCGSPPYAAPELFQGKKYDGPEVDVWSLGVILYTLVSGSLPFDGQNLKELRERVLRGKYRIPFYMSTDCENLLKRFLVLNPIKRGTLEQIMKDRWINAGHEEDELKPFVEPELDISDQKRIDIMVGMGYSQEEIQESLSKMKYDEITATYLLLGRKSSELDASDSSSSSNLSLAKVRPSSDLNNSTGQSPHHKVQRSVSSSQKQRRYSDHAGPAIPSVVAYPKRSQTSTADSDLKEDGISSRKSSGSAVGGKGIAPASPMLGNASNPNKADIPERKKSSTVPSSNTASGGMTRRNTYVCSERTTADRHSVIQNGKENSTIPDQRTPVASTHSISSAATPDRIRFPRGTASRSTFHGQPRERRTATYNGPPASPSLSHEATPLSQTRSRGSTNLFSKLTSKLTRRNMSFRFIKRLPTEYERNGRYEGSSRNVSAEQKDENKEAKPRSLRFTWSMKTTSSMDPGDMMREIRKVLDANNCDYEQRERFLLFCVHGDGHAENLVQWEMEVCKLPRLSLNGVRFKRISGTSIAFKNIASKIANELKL

Row | effect of a mutation on the interaction | Variant
6 | decreasing interaction strength | MERASLIQKAKLAEQAERYEDMAAFMKGAVEKGEELSCEERNLLSVAYENVVGGQEAAWRVLSSIEQKSNEEGSEEKGPEVREYREKVETELQGVCDTVLGLLDSHLIKEAGDAESRVFYLKMKGDYYRYLAEVATGDDKKRIIDSARSAYQEAMDISKKEMPPTNPIRLGLALNFSDFHYEIANSPEEAISLAKTTFDEAMADLHTLSEDSYKDSTLIMQLLRDNLTLWTADNAGEEGGEAPQEPQS [K49E;R56E;V178D]

Variants of: B1
Settings: with plk1_human PLK1, P53350
Sequence of plk1_human PLK1, P53350 (P53350 whole entry): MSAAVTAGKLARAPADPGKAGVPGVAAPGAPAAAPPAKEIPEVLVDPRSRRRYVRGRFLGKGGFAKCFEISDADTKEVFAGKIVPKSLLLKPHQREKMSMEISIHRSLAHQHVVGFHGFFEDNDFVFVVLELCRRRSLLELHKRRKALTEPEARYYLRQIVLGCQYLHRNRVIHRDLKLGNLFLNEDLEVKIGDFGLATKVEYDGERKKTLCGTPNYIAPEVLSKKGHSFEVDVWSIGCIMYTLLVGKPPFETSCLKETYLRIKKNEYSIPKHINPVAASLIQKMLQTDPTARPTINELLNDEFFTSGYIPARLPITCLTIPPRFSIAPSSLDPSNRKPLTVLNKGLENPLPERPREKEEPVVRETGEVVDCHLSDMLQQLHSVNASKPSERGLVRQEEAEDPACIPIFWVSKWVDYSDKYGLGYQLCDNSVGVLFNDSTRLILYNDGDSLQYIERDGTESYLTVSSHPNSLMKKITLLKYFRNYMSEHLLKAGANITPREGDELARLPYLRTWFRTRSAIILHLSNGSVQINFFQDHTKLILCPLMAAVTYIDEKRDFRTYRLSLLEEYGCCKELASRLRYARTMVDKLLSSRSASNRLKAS

Row | effect of a mutation on the interaction | Variant
7 | decreasing interaction strength | MERASLIQKAKLAEQAERYEDMAAFMKGAVEKGEELSCEERNLLSVAYENVVGGQEAAWRVLSSIEQKSNEEGSEEKGPEVREYREKVETELQGVCDTVLGLLDSHLIKEAGDAESRVFYLKMKGDYYRYLAEVATGDDKKRIIDSARSAYQEAMDISKKEMPPTNPIRLGLALNFSDFHYEIANSPEEAISLAKTTFDEAMADLHTLSEDSYKDSTLIMQLLRDNLTLWTADNAGEEGGEAPQEPQS [K49E;R56E;V178D]

Variants of: B1
Settings: with cd28_human CD28, P10747

Row | effect of a mutation on the interaction | Variant
8 | decreasing interaction strength | MERASLIQKAKLAEQAERYEDMAAFMKGAVEKGEELSCEERNLLSVAYENVVGGQEAAWRVLSSIEQKSNEEGSEEKGPEVREYREKVETELQGVCDTVLGLLDSHLIKEAGDAESRVFYLKMKGDYYRYLAEVATGDDKKRIIDSARSAYQEAMDISKKEMPPTNPIRLGLALNFSDFHYEIANSPEEAISLAKTTFDEAMADLHTLSEDSYKDSTLIMQLLRDNLTLWTADNAGEEGGEAPQEPQS [K49E;R56E;V178D]

Variants of: B1
Settings: with srs10_human SRSF10, O75494
Sequence of srs10_human SRSF10, O75494 (O75494 whole entry): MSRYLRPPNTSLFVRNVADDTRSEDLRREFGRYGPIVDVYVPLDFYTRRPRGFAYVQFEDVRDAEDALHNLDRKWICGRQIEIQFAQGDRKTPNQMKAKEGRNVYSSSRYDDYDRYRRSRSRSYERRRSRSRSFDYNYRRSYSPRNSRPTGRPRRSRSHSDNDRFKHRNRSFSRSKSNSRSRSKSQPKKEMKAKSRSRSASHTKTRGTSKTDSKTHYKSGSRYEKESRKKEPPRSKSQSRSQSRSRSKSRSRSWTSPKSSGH

Row | effect of a mutation on the interaction | Variant
9 | decreasing interaction strength | MERASLIQKAKLAEQAERYEDMAAFMKGAVEKGEELSCEERNLLSVAYENVVGGQEAAWRVLSSIEQKSNEEGSEEKGPEVREYREKVETELQGVCDTVLGLLDSHLIKEAGDAESRVFYLKMKGDYYRYLAEVATGDDKKRIIDSARSAYQEAMDISKKEMPPTNPIRLGLALNFSDFHYEIANSPEEAISLAKTTFDEAMADLHTLSEDSYKDSTLIMQLLRDNLTLWTADNAGEEGGEAPQEPQS [K49E;R56E;V178D]

Variants of: B1
Settings: with pabp1_human PABPC1, P11940
Sequence of pabp1_human PABPC1, P11940 (P11940 whole entry): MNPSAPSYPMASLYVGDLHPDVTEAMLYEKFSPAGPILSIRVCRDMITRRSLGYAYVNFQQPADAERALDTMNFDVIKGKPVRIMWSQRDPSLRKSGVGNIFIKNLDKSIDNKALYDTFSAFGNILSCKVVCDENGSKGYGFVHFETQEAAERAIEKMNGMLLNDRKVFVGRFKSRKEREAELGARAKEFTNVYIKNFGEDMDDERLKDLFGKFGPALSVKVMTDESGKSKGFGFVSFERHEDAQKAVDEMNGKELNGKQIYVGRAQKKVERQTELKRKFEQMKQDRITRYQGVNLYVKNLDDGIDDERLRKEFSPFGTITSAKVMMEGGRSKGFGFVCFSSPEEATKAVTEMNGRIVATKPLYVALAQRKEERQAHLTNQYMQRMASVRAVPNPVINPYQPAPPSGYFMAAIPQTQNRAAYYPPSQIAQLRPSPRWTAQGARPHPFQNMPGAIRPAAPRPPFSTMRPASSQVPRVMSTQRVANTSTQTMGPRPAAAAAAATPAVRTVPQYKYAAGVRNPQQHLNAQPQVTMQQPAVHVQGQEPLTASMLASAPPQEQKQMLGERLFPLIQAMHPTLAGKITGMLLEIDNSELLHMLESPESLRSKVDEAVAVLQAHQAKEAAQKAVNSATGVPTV

Row | effect of a mutation on the interaction | Variant
10 | decreasing interaction strength | MERASLIQKAKLAEQAERYEDMAAFMKGAVEKGEELSCEERNLLSVAYENVVGGQEAAWRVLSSIEQKSNEEGSEEKGPEVREYREKVETELQGVCDTVLGLLDSHLIKEAGDAESRVFYLKMKGDYYRYLAEVATGDDKKRIIDSARSAYQEAMDISKKEMPPTNPIRLGLALNFSDFHYEIANSPEEAISLAKTTFDEAMADLHTLSEDSYKDSTLIMQLLRDNLTLWTADNAGEEGGEAPQEPQS [K49E;R56E;V178D]

Variants of: B1
Settings: with foxo3_human FOXO3, O43524

Row | effect of a mutation on the interaction | Variant
11 | decreasing interaction strength | MERASLIQKAKLAEQAERYEDMAAFMKGAVEKGEELSCEERNLLSVAYENVVGGQEAAWRVLSSIEQKSNEEGSEEKGPEVREYREKVETELQGVCDTVLGLLDSHLIKEAGDAESRVFYLKMKGDYYRYLAEVATGDDKKRIIDSARSAYQEAMDISKKEMPPTNPIRLGLALNFSDFHYEIANSPEEAISLAKTTFDEAMADLHTLSEDSYKDSTLIMQLLRDNLTLWTADNAGEEGGEAPQEPQS [K49E;R56E;V178D]

Variants of: B1
Settings: with hdac4_human HDAC4, P56524
Sequence of hdac4_human HDAC4, P56524 (P56524 whole entry): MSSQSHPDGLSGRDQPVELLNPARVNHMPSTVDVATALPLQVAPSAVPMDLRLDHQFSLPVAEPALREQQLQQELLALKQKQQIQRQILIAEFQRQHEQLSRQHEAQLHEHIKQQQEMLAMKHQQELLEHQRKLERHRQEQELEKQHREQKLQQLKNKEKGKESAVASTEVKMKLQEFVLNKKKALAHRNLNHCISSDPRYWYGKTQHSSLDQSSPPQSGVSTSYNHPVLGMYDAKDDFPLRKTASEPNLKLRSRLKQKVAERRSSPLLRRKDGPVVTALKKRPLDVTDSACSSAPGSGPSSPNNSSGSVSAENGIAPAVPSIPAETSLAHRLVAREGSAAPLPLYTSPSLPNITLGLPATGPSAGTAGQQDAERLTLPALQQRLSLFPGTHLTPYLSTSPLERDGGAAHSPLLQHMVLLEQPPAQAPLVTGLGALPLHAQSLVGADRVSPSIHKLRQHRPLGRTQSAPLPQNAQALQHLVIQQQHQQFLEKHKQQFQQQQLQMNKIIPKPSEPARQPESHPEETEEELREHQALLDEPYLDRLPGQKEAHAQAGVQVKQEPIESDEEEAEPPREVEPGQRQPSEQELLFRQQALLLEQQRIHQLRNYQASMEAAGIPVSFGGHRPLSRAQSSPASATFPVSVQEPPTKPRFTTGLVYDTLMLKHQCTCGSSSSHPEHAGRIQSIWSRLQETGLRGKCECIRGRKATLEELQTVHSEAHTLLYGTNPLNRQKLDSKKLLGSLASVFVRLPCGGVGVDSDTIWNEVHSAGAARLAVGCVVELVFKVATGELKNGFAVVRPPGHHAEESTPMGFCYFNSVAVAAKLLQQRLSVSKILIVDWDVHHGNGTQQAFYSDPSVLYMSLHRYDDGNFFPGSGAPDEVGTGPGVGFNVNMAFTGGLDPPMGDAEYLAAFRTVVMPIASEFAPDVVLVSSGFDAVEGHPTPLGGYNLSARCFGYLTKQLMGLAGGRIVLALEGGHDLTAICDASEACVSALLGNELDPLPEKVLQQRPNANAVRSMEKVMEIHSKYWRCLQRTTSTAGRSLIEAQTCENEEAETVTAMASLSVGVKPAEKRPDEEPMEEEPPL

Row | effect of a mutation on the interaction | Variant
12 | decreasing interaction strength | MERASLIQKAKLAEQAERYEDMAAFMKGAVEKGEELSCEERNLLSVAYENVVGGQEAAWRVLSSIEQKSNEEGSEEKGPEVREYREKVETELQGVCDTVLGLLDSHLIKEAGDAESRVFYLKMKGDYYRYLAEVATGDDKKRIIDSARSAYQEAMDISKKEMPPTNPIRLGLALNFSDFHYEIANSPEEAISLAKTTFDEAMADLHTLSEDSYKDSTLIMQLLRDNLTLWTADNAGEEGGEAPQEPQS [K49E;R56E;V178D]

Variants of: B1
Settings: with wdr62_human WDR62, O43379

Row | effect of a mutation on the interaction | Variant
13 | decreasing interaction strength | MERASLIQKAKLAEQAERYEDMAAFMKGAVEKGEELSCEERNLLSVAYENVVGGQEAAWRVLSSIEQKSNEEGSEEKGPEVREYREKVETELQGVCDTVLGLLDSHLIKEAGDAESRVFYLKMKGDYYRYLAEVATGDDKKRIIDSARSAYQEAMDISKKEMPPTNPIRLGLALNFSDFHYEIANSPEEAISLAKTTFDEAMADLHTLSEDSYKDSTLIMQLLRDNLTLWTADNAGEEGGEAPQEPQS [K49E;R56E;V178D]

Variants of: B1
Settings: with pml_human PML

Row | effect of a mutation on the interaction | Variant
14 | decreasing interaction strength | MERASLIQKAKLAEQAERYEDMAAFMKGAVEKGEELSCEERNLLSVAYENVVGGQEAAWRVLSSIEQKSNEEGSEEKGPEVREYREKVETELQGVCDTVLGLLDSHLIKEAGDAESRVFYLKMKGDYYRYLAEVATGDDKKRIIDSARSAYQEAMDISKKEMPPTNPIRLGLALNFSDFHYEIANSPEEAISLAKTTFDEAMADLHTLSEDSYKDSTLIMQLLRDNLTLWTADNAGEEGGEAPQEPQS [K49E;R56E;V178D]

Variants of: B1
Settings: with wwp2_human WWP2, O00308

Row | effect of a mutation on the interaction | Variant
15 | decreasing interaction strength | MERASLIQKAKLAEQAERYEDMAAFMKGAVEKGEELSCEERNLLSVAYENVVGGQEAAWRVLSSIEQKSNEEGSEEKGPEVREYREKVETELQGVCDTVLGLLDSHLIKEAGDAESRVFYLKMKGDYYRYLAEVATGDDKKRIIDSARSAYQEAMDISKKEMPPTNPIRLGLALNFSDFHYEIANSPEEAISLAKTTFDEAMADLHTLSEDSYKDSTLIMQLLRDNLTLWTADNAGEEGGEAPQEPQS [K49E;R56E;V178D]
